The values below come from US7678386B2, “Liposomes coated with selected antibodies that bind to aminophospholipids” (Board of Regents the University of Texas, priority 2002, dated 2010).

This experiment is described as follows: Monoclonal single chain antibody ELISA on PS plate. Format: binding. The note with it: supernatants of individual subclones, 10% human serum. Here is the method:
Individual HB2151 colonies from the plates (after 4 rounds of selection) were inoculated into 500 μl 2×TY containing 100 μg/ml ampicillin and 1% glucose in 96-well plates and grown with shaking (300 rpm.) overnight at 37° C. 5 μl from this plate were transferred to a second 96-well plate containing 500 μl 2×TY containing 100 μg/ml ampicillin per well and grown shaking at 37° C. for 3 hr (OD600=0.9).
To each well was added 50 μl 2×TY containing 100 μg/ml ampicillin, 10 mM IPTG (final concentration is 1 mM), which was grown with shaking overnight at 30° C. It was centrifuged at 1,800 g for 10 min and 100 μl of the supernatant used in the following ELISA.
96 well plates (DYNEX IMMULON®1B) were coated with PS dissolved in ethanol at a concentration of 10 μg/ml (P6641 10 mg/ml solvent was Chloroform:MeOH 95:5). 10 μg/ml PC was coated in the same way. These plates were evaporated at 4° C. in the cold room. 250 μl 2.5% casein was added to each well, and the plates were covered and blocked at 37° C. for 1 hour.
Wells were rinsed 3 times with PBS, 100 μl/well 10% human serum and 100 μl/well supernatant containing soluble scFv was added and incubated for 60 min at 37° C. The solution was discarded and washed 6 times with PBS. […] 100 μl 0.18 M H2SO4 was added to stop the reaction and read at O.D. 490.

Values joined by “and” are separate entries in the source; they are usually repeats but may differ in a detail not shown here. Identical values can stand only once.

B1: 3A2: scFv anti-PS clone; sequences SEQ ID NO:5 and SEQ ID NO:6 (protein)
scFv: AQPAMAEVQLVESGGGVVQPGRSLRLSCAASGFTFSSYGMHWVRQAPGKGLEWVAVISYDGSNKYYADSVKGRFTISRDNSKNTLYLQMNSLRAEDTAVYYCARLHAQTWGQGTLVTVSSGGGGSGGGGSGGSALQSVLTQPPSVSAAPGQKVTISCSGSSSDMGNYAVSWYQQLPGTAPKLLIYENNKRPSGIPDRFSGSKSGTSATLGITGLWPEDEADYYCLAWDTSPRNVFGGGTKLTVLGAAAHHHHHHGAAEQKL
As to B1, the “ELISA on PS Plate (O.D. 490)” value was 0.126 and 0.118 (2×) and 0.131 (2×) and 0.125 and 0.115 and 0.127 and 0.150 and 0.117 and 0.112 and 0.121 and 0.123 and 0.114 and 0.116 and 0.132.
